# Measurements published in paper PMC5043356, “A general solution for opening double-stranded DNA for isothermal amplification”.
# B1: X1 (54 nt) (ssDNA)
# DNA: TACGTTAACAAAAAGTCAGATATGGACCTTGCTGCTAAAGGTCTAGGAGCTAAA
# Target: RecA (Escherichia coli BJ5183, UniProt P0A7G6 1-353)
# Experiment: EMSA; no nucleotide cofactor; 1 mM Mg2+ (10 mM in Fig. S1B); about 5 nt per RecA; 25 mM Tris pH 7.6, 1 mM MgCl2 (10 mM in supplementary assays), 1 mM DTT, 37 C, 10 min, 12 pmol X1 in 10 ul; 2% native agarose gel
# Conditions: protein: recombinant; tags: His tag (pET28a, Ni purification); single strand
# Sequence of RecA (P0A7G6 whole entry): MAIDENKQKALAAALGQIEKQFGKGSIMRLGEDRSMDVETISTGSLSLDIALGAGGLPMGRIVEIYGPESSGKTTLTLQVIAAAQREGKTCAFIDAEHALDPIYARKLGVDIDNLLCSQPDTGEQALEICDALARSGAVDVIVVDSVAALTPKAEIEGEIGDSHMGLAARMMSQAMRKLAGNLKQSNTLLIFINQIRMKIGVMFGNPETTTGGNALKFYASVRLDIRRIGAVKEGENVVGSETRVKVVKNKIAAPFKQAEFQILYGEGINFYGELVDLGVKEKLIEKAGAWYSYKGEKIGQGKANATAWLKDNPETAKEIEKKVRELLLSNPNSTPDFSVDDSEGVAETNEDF
binder,measurement,value
B1,binding result,binds
